According to the DeepSol protein solubility set:

experiment: soluble on expression in E. coli; label from the status in PepcDB or PDB records

Sequence	soluble on expression in E. coli
MTQRDTGRLDAIVLAAGRGVRFGGGKLTALLDGDPLVAAALLTAFLAPARRVVVAVGPEPDVRQAVEATATRLLARERLVLVPIDDPSAGMGASLAAAARSLPGDTDGVFVFLGDMPRIDPATPRHLAAALRDPGDIVAPTYLGRRGHPVLFGARWAPVLGALSGDEGARAIVDKAGESLVLVPVDDPGVHLDVDRPSDLARVQTDRRTLLEHHHHHH	soluble
MAKVVIPNGAEGEEAVYREQVIREYSGNPFIEALPPIYAPEEVVEKLAVYPPYSEEERNLDAHYRIHLTQKLFHCFQPLPQHLDLESRISRVIRQGYLPRNPVSKEYVISLKDGYRAVQNCDINANQQFRSTACGFTIIGVSGMGKSVSINRVLSMYPQVIVHSRYKGQGFSFYQLVWLKLDTPFDGSVKGLCIDFFNKVDQLMGTDFYKKVANSRKSVDYMLTLMCQVVRNTGLGLLIIDEVQHLCGARGLGDERMLNFFVTLVNTAGVPIILIATPKAMSILQSEFRQARRGSGQGDMVWERLQYDENFEILLDSLWQYQWTRKESILTKSMRELLYEESQGIIDIICKIIVMAQTIAISTGKEQVDEKLIQQVAREHLQLVRPMILALKSGNIREIAKYSDICTAEIDYGKLVNQEKLPVEMRMRIRAIKEQKEKREKENKTSKMEQALYKLAELGIDVAKARKAVEAVFEAEGHNIDEGQLVIKAIQVLSGNTTEKKSKKVKTTPKSENDLRYIVEEGRNQGKSAYDALKDKGYIKGEKNDTLFKAV	not soluble
MEEETIKVENLDDSITIDRNPVPLAFCARPTLPAKIGMKTEDGIVDQLLDLVDPITVVNPTEIRQAPSLKSFGCDTESEFEFSGDDSDFENINDLRAGALDSDEEFDRLVKFSAKIIEKTHKSEYPDENGKKQRKPKKSQKTRNVHEYDDMPPLENLSIECKGQLLEFGFVSKVVDCQVVIISTCTEVLDFDSFLFDQKGNALGQIYDIFGQVKNPQYVIRFNSCEEASMIPIDMKVYYAPTEEQFSKTPFKGLNLAAANRDAIKSLNRRIDHQEAVAKAGETMAQVGIGSDVEFSDDEAEKEFKRTTYTQPASQMSRGFDSNRGRKRDRRGGQKVRFSAQNPPARSDNLGPIPQQPSAPPPPARPAQSTESNPYAEFGCHSGFNGRFGI	not soluble
MEHLSQDEVIRLASTPCSAPALKRAFLFSCLTALRKSDIKKLTWEEIQPYGSDGVMYVTTRMQKTKDIVHNPISEEALELIGYSPDKRGKVFPDFKDSMTQAPLKNWLKDAGITKHISYHCSRHSFACLQLDAGTSIAVVQRYLGHKNVATTEVYAKISDAQKRASVGLEHHHHHH	not soluble
APTIPQGQGKVTFNNTVVDAPCSISQKSADQSIDFGQLSKSFLEAGGVSKPMDLDIELVNCDITAFKGGNGAKKGTVKLAFTGPIVNGHSDELDTNGGTGLAIVVQGAGKNVVFDGSEGDANTLKDGENVLHYTAVVKKSSAVGAAVTEGAFSAVANFNLTYQ	soluble
GSPGISGGGGGILDSMVEKEEPKEEEKLGKLQYSLDYDFQNNQLLVGIIQAAELPALDMGGTSDPYVKVFLLPDKKKKFETKVHRKTLNPVFNEQFTFKVPYSELGGKTLVMAVYDFDRFSKHDIIGEFKVPMNTVDFGHVTEEWRDLQSAE	soluble
MKDVSKNQEENISDTALTNELIHLLGHSRHDWMNKLQLIKGNLSLQKYDRVFEMIEEMVIDAKHESKLSNLKTPHLAFDFLTFNWKTHYMTLEYEVLGEIKDLSAYDQKLAKLMRKLFHLFDQAVSRESENHLTVSLQTDHPDRQLILYLDFHGAFADPSAFDDIRQNGYEDVDIMRFEITSHECLIEIGLD	soluble
MGDNLTDLPGVGPSTAEKLVEAGYIDFMKIATATVGELTDIEGISEKAAAKMIMGARDLCDLGFKSGIDLLKQRSTVWKLSTSSSELDSVLGGGLESQSVTEFAGVFGSGKTQIMHQSCVNLQNPEFLFYDEEAVSKGEVAQPKAVYIDTDGTFRPERIMQMAEHAGIDGQTVLDNTFVARAYNSDMQMLFAEKIEDLIQEGNNIKLVVIDSLTSTFRNEYTGRGKLAERQQKLGRHMATLNKLADLFNCVVLVTNQVSAKPDAFFGMAEQAIGGHIVGHAATFRFFVRKGKGDKRVAKLYDSPHLPDAEAIFRITEKGIQD	soluble
MVHAFLIHTLRAPNTEDTGLCRVLYSCVFGAEKSPDDPRPHGAERDRLLRKEQILAVARQVESMCRLQQQASGRPPMDLQPQSSDEQVPLHEAPRGAFRLAAENPFQEPRTVVWLGVLSLGFALVLDAHENLLLAEGTLRLLTRLLLDHLRLLAPSTSLLLRADRIEGILTRFLPHGQLLFLNDQFVQGLEKEFSAAWPR	not soluble
MGHHHHHHSHMKSREGSVHPQVEIANLLLIQSSLANLPPGPCWFCLASPEVEKHLVVNIGTHCYLALAKGGLSDDHVLILPIGHYQSVVELSAEVVEEVEKYKATLRRFFKSRGKWCVVFERNYKSHHLQLQVIPVPISCSTTDDIKDAFITQAQEQQIELLEIPEHSDIKQIAQPGAAYFYVELDTGEKLFHRIKKNFPLQFGREVLASEAILNVPDKSDWRQCQISKEDEETLARRFRKDFEPYDFTLDD	not soluble
MSWEGFKKAINRAGHSVIIKNVDKTIDKEYDMEERRYKVLQRAGEALQKEAKGFLDSLRAVTASQTTIAEVISNLYDDSKYVAGGGYNVGNYYLQCVQDFDSETVKQLDGPLRETVLDPITKFSTYFKEIEEAIKKRDHKKQDFDAAKAKVRRLVDKPAKDASKLPRAEKELSLAKDIFENLNNQLKTELPQLVSLRVPYFDPSFEALIKIQLRFCTDGYTRLAQIQQYLDQQSRDDYANGLLDTKIEELLGQMTSLDICALGIK	not soluble
MSAQYDLYETPDIKQTGEKQPLHPRIVPKGTIGQDEFLDRVHKFTGISRSLLAGAMQSFQNELKDLLANGWIVELGEIGYFSVSLQGPPVMHKKDVRAQSIKLKNINYLPTKQFKREVGYDMRLERTESLTRPKGNGRSEAECLALITAHLEKYPCMTRTDYCHMTGHDKKRALKELNAFIEKEILMRYGAGKQVVYAKKMI	not soluble
GPGSMVDPSVLLAYCPTHDFQRIEAVVREWPGVEAVGSLRTKEGKENTTSVFIKFSDKEAARDATSRIDAVPGLVRKIEEPKAKQRMRKMGKNMLIDPAMEIFSFGATDKGDVTFNERKREGNRRRHPSVIGPGSGSERTSNKGNNAIRHHPFTPPARASVALVDNVPFNMTNDQVARLFSPFGELIDLSRYETMAMVFYRSPDSVLKCIQQLNGKTVKGKIITVSSGAITIPGLLAAVVGVQVHN	soluble
MGTALAAPPLGGCAEGFEVHGGDEEGLPLPTQIDLYLVGLAPLPHHGSRQPVEPPVGHAPVWEGGVYDYSHLIAHPVLPKVGAEPGYAALLPHRLPQQPPSPVPIASRCLDQPTLPPVFCSAQLNLALAGCGWSFMLHPHHVELYTHSLPAEDLSEAWPGSPAITADQLLDVETPFRLQYALHQRRPLQGAAV	soluble
MSTFKITIIGGGSSYTPELVDGLIQRIEQLPVTELALVDVEQGRQKVEIIAALTQRMLARHGLEQVKVSVHYSLDEAIRGARFVLTQFRVGQLPARAADERLGLKYNLLGQETTGIGGFAKALRTIPVMLDIAANVERLAPDAWIINFTNPAGIVTEAVSRYTKAKIIGLCNVPISMHHMIAKLLQAPYEDLQLRFAGLNHMVWVHEVLQRGKYVTADVLKMLCDGASLSMNNIKEAPWPPEFLQAMGAIPCPYHRYFYQTQDMLAEEMAAAAERGTRAEQVMQVEKELFALYADPHLDTKPEQLSFRGGSFYSEVALELIRAIHNNLGTQLVVNTTNRGAIRGLSDDSVVETNCIIDAKGAHPLTFGPLPVSMHGLTQQVKAYERLTIDAAVHGDRRSALLALVTNPLIANASIAQPLLEEVLQVNKPYLPQFSGL	not soluble
MSHHRIIIIGAGAAGVGMAITLQEFNIKDVLIVEKGTIGHSFKHWPLSTKTITPSFTTNGFGMPDMNAIAKDTSPAFTFNEEHLSGKRYAEYLSLVATHYNLNVKTNTNVSRVTYIDGIYHVSTYYGVYTADYIFIATGDYSFPYHPFSYGLHYSEIQTFTQLKGDAFTIIGGNESAFDAAINLSQTGARISIYTSKTGLKKEDADPSIRLSPYTQQRLRNAIQEGALIEMHVGYQARKITYQNHSYKIHFDNGHIVHSHTEPIIATGFDVTQNPLIEQLFQVRQSEVQLTELDESTKFPNVFLIGATVRHQNAILCYIYKFRARFAVLARIVSLREGLPEDTSLIQSYRQKNMFLDDYSCCDVNCTCLEHHHHHH	not soluble
